Source: patent US20240247080A1, “GLP1/GIP/NPY2 RECEPTOR TRIPLE AGONISTS” (Boehringer Ingelheim International GmbH, priority 2022, published 2024)
Starred links: 1 amine or outer side, 2 acyl side, 3 side chain; linkers in the order of their positions; H or OH if unused. Non-standard residues stand in square brackets, D forms with d. Groups on a side chain read outwards from the residue. No end group written: not given here. *: point of attachment. C20 diacid = O=C(O)CCCCCCCCCCCCCCCCCCC(=O)*; γGlu = O=C(O)[C@H](CCC(=O)[*:2])N[*:1]; εLys = N[C@@H](CCCCN[*:1])C(=O)[*:2]; Aib = CC(C)(N)C(=O)O

T1: human neuropeptide Y2 receptor (human, UniProt P49146 1-381)
T1 sequence (looked up): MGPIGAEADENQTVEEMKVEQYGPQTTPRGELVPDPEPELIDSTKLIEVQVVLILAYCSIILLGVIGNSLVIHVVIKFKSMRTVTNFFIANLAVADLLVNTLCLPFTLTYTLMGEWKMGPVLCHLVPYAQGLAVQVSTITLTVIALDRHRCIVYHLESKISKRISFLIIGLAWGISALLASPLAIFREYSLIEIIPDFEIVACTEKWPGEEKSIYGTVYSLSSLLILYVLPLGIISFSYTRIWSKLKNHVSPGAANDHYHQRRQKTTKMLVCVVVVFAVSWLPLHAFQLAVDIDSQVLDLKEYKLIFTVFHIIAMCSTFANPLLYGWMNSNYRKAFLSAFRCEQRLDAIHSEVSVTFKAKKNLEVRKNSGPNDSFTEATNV

T2: human GIP receptor (human, UniProt P48546 22-466)
T2 sequence (looked up): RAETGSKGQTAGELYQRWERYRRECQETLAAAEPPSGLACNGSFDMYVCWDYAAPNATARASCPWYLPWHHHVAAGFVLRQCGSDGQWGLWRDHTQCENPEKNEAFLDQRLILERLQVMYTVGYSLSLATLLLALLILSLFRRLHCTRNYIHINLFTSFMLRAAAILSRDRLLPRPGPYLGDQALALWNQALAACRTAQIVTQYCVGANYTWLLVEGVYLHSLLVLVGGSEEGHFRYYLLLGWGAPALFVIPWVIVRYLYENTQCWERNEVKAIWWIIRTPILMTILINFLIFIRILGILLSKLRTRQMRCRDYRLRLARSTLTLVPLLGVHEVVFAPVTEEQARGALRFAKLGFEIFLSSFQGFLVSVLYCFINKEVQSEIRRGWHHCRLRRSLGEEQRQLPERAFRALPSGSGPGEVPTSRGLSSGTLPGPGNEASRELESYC


Tests used:
Assay in all cases: cell-based or functional assay
[1] = molecular target: T1, human neuropeptide Y2 receptor
human GLP-1 receptor = human GLP-1 receptor (human, UniProt P43220 24-463)
human GIP receptor = molecular target: T2, human GIP receptor

Row | Binder | EC50 CreLuc hNPY2R 0.5% hP [1] [nM] | EC50 CreLuc hNPY2R 100% hP [1] [nM] | EC50 CreLuc hGLP1R 0.5% hP (human GLP-1 receptor) [nM] | EC50 CreLuc hGLP1R 100% hP (human GLP-1 receptor) [nM] | EC50 CreLuc hGIPR 0.5% hP (human GIP receptor) [nM] | EC50 CreLuc hGIPR 100% hP (human GIP receptor) [nM]
1 | Y[Aib]EGTFTSDYSI[Aib]LEEQAQ[Aib]AFVEWLIKGGPSSGASLRHYYNWLTRQRY-NH2 (not fully specified (residue 28)) [Compound 105] | 10.4 | 69 | 0.14 | 1.66 | 0.2 | 0.87
2 | Y[Aib]EGTFTSDYSI[Aib]LEKQAQ[Aib]AFVQWLIK([εLys-γGlu-γGlu-γGlu-Glu-γGlu-γGlu-γGlu-C20 diacid])GGPSSGASLRHYYNWLTRQRY-NH2 [Compound 92] | 7.48 | 27.9 | 0.08 | 3.16 | 0.33 | 1.64
3 | Y[Aib]EGTFTSDYSI[Aib]LEEQAQ[Aib]AFVEWLIKGGPSSGASLRHYYNWLTRQRY-NH2 (not fully specified (residue 28)) [Compound 100] | 11.2 | 48 | 0.12 | 2.21 | 0.1 | 0.87
4 | YXEGTFTSDYSIXLEKQAQXAFVQWLIKGGPEEGASLRHYYNWLTRQRY (Aib at 2, 13, 20; K28 side chain: C20DA-gGlu-gGlu-gGlu-gGlu-gGlu-gGlu-eLys; C-terminal NH2) [Compound 89] | 14.8 | 42.4 | 0.25 | 8.9 | 1.01 | 1.7
5 | YXEGTFTSDYSIXLEKQAQXAFVEWLIKGGPSSGASXRHYYNWLTRQRY (Aib at 2, 13, 20; Tle at 37; K28 side chain: C20DA-gGlu-gGlu-gGlu-gGlu-gGlu-gGlu-eLys; C-terminal NH2) [Compound 103] | 12 | 50.7 | 0.13 | 3.19 | 0.26 | 1.73
6 | YXEGTFTSDYSIXLEKQAQXAFVEWLIKGGPSSPASLRHYYNWLTRQRY (Aib at 2, 13, 20; K28 side chain: C20DA-gGlu-gGlu-gGlu-gGlu-gGlu-gGlu-eLys; C-terminal NH2) [Compound 95] | 20.6 | 56.9 | 0.13 | 2.76 | 0.13 | 0.75
7 | YXEGTFTSDYSIXLEKQAQXAFVEWLIKGGPSEYESLRHYYNWLTRQRY (Aib at 2, 13, 20; K28 side chain: C20DA-gGlu-gGlu-gGlu-gGlu-gGlu-gGlu-eLys; C-terminal NH2) [Compound 93] | 15.3 | 85.7 | 0.22 | 8.97 | 0.14 | 2.35
8 | YXEGTFTSDYSILLEKQAQXAFVEWLIKGGPSSGASLRHYYNWLTRQRY (Aib at 2, 20; K28 side chain: C20DA-gGlu-Glu-gGlu-gGlu-gGlu-gGlu-eLys; C-terminal NH2) [Compound 104] | 13.4 | 50.7 | 0.09 | 2.06 | 0.06 | 0.6
9 | YXEGTFTSDYSIXLEKQAQXAFVEWLIKGGPSSGATLRHYYNWLTRQRY (Aib at 2, 13, 20; K28 side chain: C20DA-gGlu-gGlu-gGlu-gGlu-gGlu-gGlu-eLys; C-terminal NH2) [Compound 91] | 16.2 | 53.1 | 0.17 | 4.16 | 0.21 | 1.72
10 | YXEGTFTSDYSIXLEKQAQXAFVEWLIKGGPSSGASLRHYINWLTRQRY (Aib at 2, 13, 20; K28 side chain: C20DA-gGlu-gGlu-gGlu-gGlu-gGlu-gGlu-eLys; C-terminal NH2) [Compound 106] | 20.5 | 74.2 | 0.14 | 3.56 | 0.26 | 2.17
11 | YXEGTFTSDYSIXLEDQAQXAFVEWLIKGGPSSGASLRHYYNWLTRQRY (Aib at 2, 13, 20; K28 side chain: C20DA-gGlu-gGlu-gGlu-gGlu-gGlu-gGlu-eLys; C-terminal NH2) [Compound 90] | 18.4 | 71.9 | 0.3 | 5.39 | 1.03 | 6.75
12 | YXEGTFTSDYSIXLEAQAQXAFVEWLIKGGPSSGASLRHYYNWLTRQRY (Aib at 2, 13, 20; K28 side chain: C20DA-gGlu-gGlu-gGlu-gGlu-gGlu-gGlu-eLys; C-terminal NH2) [Compound 102] | 24.9 | 80.7 | 0.33 | 3.48 | 0.98 | 4.01
13 | YXEGTFTSDYSIXLEKQAQXAFVEWLIKGGPSSGISLRHYYNWLTRQRY (Aib at 2, 13, 20; K28 side chain: C20DA-gGlu-gGlu-gGlu-gGlu-gGlu-gGlu-eLys; C-terminal NH2) [Compound 94] | 12.3 | 40.2 | 0.09 | 1.98 | 0.22 | 1.04
14 | YXEGTFTSDYSIXLEGQAQXAFVEWLIKGGPSSGASLRHYYNWLTRQRY (Aib at 2, 13, 20; K28 side chain: C20DA-gGlu-gGlu-gGlu-gGlu-gGlu-gGlu-eLys; C-terminal NH2) [Compound 99] | 16.8 | 85.9 | 0.41 | 6.72 | 0.91 | 8.52
15 | YXEGTFTSDYSIXLEKQAQXAFVEWLIKGGPSSGVSLRHYYNWLTRQRY (Aib at 2, 13, 20; K28 side chain: C20DA-gGlu-gGlu-gGlu-gGlu-gGlu-gGlu-eLys; C-terminal NH2) [Compound 96] | 15.5 | 44.8 | 0.14 | 2.12 | 0.19 | 1.07
16 | YXEGTFTSDYSIXLEKQAQXAFVEWLIKGGPSSGLSLRHYYNWLTRQRY (Aib at 2, 13, 20; K28 side chain: C20DA-gGlu-gGlu-gGlu-gGlu-gGlu-gGlu-eLys; C-terminal NH2) [Compound 107] | 16.7 | 58.5 | 0.13 | 1.88 | 0.27 | 0.99
17 | YXEGTFTSDYSIXLEKQAQXAFVEWLIKGGPSSAASLRHYYNWLTRQRY (Aib at 2, 13, 20; K28 side chain: C20DA-gGlu-gGlu-gGlu-gGlu-gGlu-gGlu-eLys; C-terminal NH2) [Compound 98] | 15.1 | 64.2 | 0.31 | 8.22 | 0.44 | 3.41
18 | Y[Aib]EGTFTSDYSI[Aib]LEKQAQ[Aib]AFVQWLIKGGPSEPASLRHYYNWLTRQRY-NH2 (not fully specified (residue 28)) [Compound 101] | 12.1 | 26.5 | 0.1 | 2.5 | 0.15 | 1.43
19 | Y[Aib]EGTFTSDYSI[Aib]LEEQAQ[Aib]AFVEWLIK([εLys-γGlu-γGlu-γGlu-γGlu-C20 diacid])GGPSSGASLRHYYNWLTRQRY-NH2 [Compound 97] | 14.9 | 70.4 | 0.15 | 3.08 | 0.14 | 0.95
